Data reported in US20060193821, “Aptamers to the human IL-12 cytokine family and their use as autoimmune disease therapeutics” (published 2006).

Assays:
[1] = target: T1, IL-23 (human, p19/p40 heterodimer) (Homo sapiens, UniProt Q9NPF7;P29460 SEQ:20-189,SEQ:23-328); assay: competition; direct +tRNA 69 nM; details: tags: R&D Systems, carrier free
Experimental: The fraction aptamer bound vs. [IL-23] was used to calculate the KD by fitting the following equation to the data: Fraction aptamer bound=amplitude*([IL-23]/(KD+[IL-23]))+background binding.
(§1) Several of the minimized constructs from the dRmY Selection 2 were also assayed in a competition format in which cold aptamer was titrated and competed away trace ³²P ATP labeled aptamer In the competition assay, the [IL-23] was held constant, the [trace labeled aptamer] was held constant, and the [unlabeled aptamer] was varied. The KD was calculated by fitting the following equation to the data: Fraction aptamer bound=amplitude*([aptamer]/(KD+[aptamer]))+background binding.

[2] = target: T1, IL-23 (human, p19/p40 heterodimer); assay: SPR; Biacore, IL-23 immobilized on CM3; HBS-P, 25 C; details: tags: R&D Systems, carrier free
Experimental: All biosensor binding measurements were performed at 25° C. using a BIACORE 2000 equipped with a research-grade CM3 biosensor chip (BIACORE Inc. Piscataway, N.J.). Purified recombinant human IL-23 (R&D Systems, Minnapolis, Minn.) was immobilized to the biosensor surface using amino-coupling chemistry. To achieve this, the surfaces of two flow cells were first activated for 7 minutes with a 1:1 mixture of 0.1 M NHS (Nhydroxysuccinimide) and 0.4 M EDC (3-(N,Ndimethylamine) propyl-N-ethylcarbodiimide) at a flow rate of 5 μl/min. After surface activation, one flow cell was injected with 50 μg/ml of IL-23 at rate of 10 μl/minute for 15 minutes to allow for establishment of covalent bonds to the activated surface. Next, 1 M ethanolamine hydrochloride pH 8.5 was injected for 7 min at rate of 5 μl/min to inactivate residual esters. As a negative control, a blank flow cell was prepared by injecting 1 M ethanolamine hydrochloride pH 8.5 continuously for 7 minutes to inactivate residual esters, without protein injection.
For IL-23 binding, aptamers were serially diluted into HBS-P buffer (10 mM HEPES pH7.4, 150 mM NaCl, 0.005% Surfactant 20). […] Rate constant and dissociation constant were calculated using BIAevaluation software.

[3] = target: T1, IL-23 (human, p19/p40 heterodimer); assay: cell_activity; Pathscan pSTAT3, PHA blasts; details: tags: R&D Systems, carrier free
Experimental: (§2) PHA Blasts were isolated and prepared as described above and treated with hIL-23 at a final constant concentration of 6 ng/mL (R&D Systems, Minneapolis, Minn.) to induce STAT3 activation, instead of using 3 ng/mL as previously described with the TransAM™ assay. Clones were screened by using a 6-point […] titration from 0 to 700 nM in 3 fold dilutions in combination with a constant IL-23 concentration of 6 ng/mL of IL-23 (R&D Systems, Minneapolis, Minn.) to induce STAT3 activation, instead of using 3 ng/mL as previously described with the TransAM™ assay. Lysates of treated cells were prepared using the buffers provided by the Pathscan kit, and the assay was run according to the manufacturer's instructions. IC₅₀s for the full length clones were calculated from the dose response curves.

[4] = target: T1, IL-23 (human, p19/p40 heterodimer); assay: cell_activity; Pathscan, +/-1; TransAM 40 nM; details: tags: R&D Systems, carrier free; G4
Experimental: as §2

[5] = target: T1, IL-23 (human, p19/p40 heterodimer); assay: cell_activity; IL-23/IL-18 induced IFN-gamma, PHA blasts; details: tags: R&D Systems, carrier free
Experimental: (§3) PHA Blasts were isolated and prepared as described above. Once isolated, PHA Blasts were cultured for 4 days before use (with no re-feeding the night before use). After culturing for 4 days, an appropriate number of cells (enough for 0.5×10^6 cells per well) were collected, pelleted by centrifugation and washed with RPMI 1640 and 0.2% FBS (repeated twice). These cells were then serum starved by placement into 2, 150 mm sterile culture dishes with 25 mL of RPMI 1640-0.2% FBS each for 2-3 hours. Following serum starvation, cells were plated in a 96 well microtiter plate at a density of 0.5×10^6 cells per 200 μl of serum starved media.
(§4) IL-12/IL-18 or IL-23/IL-18 was used to induce IFN-γ production in PHA Blasts as follows. 10 μl of IL-23 (R&D Systems) at a concentration of 60 ng/mL (or 10 μl of IL-12 at a concentration of 20 ng/mL), and 10 μl of IL-18 (MBL) at a concentration of 200 ng/mL were added to the appropriate wells. […] Following incubation, 200 μl of supernatant was removed from each well and either flash frozen at −80° C., or quantified immediately for IFN-γ. An ELISA kit was used to quantify the IL-23/IL-18 and IL-12/IL-18 induced IFN-γ in PHA Blasts according to the manufacturer's recommended protocol (Recombinant human IFN-γ Quantikine Kit, R&D Systems, Minneapolis, Minn.). The colorimetric readout was quantified using a 96 well plate reader and absorbance values were graphed.

[6] = target: IL-12 (human, p35/p40 heterodimer) (Homo sapiens, UniProt P29459;P29460 SEQ:57-253,SEQ:23-328); assay: cell_activity; IL-12/IL-18 induced IFN-gamma, PHA blasts
Experimental: as §3, §4

[7] = target: T1, IL-23 (human, p19/p40 heterodimer); assay: filter; -tRNA; competition 8 nM; details: tags: R&D Systems, carrier free
Experimental: These molecules were gel purified and assayed for IL-23 binding using the dot blot assay as described above and compared to each other and to the parent molecule, ARC979. An 8 point IL-23 titration (0 nM to 300 nM, 3 fold serial dilutions) was used in the binding assay.

[8] = target: T1, IL-23 (human, p19/p40 heterodimer); assay: filter; DPBS Ca Mg, 0.1 mg/mL BSA; details: tags: R&D Systems, carrier free
Experimental: The dot blot binding assay previously described was used to characterize the relative potency of the majority of the aptamers synthesized. For KD determination, chemically synthesized aptamers were purified using denaturing polyacrylamide gel electrophoresis, 5′end labeled with γ-³²P ATP and were tested for direct binding to full human IL-23. An 8 point protein titration was used in the dot blot binding assay (either {100 nM, 30 nM, 10 nM, 3 nM, 1 nM, 300 pM, 100 pM, 0 pM} or {10 nM, 3 nM, 1 nM, 300 pM, 100 pM, 30 pM, 10 pM, 0 pM}) in Dulbecco's PBS (with Mg⁺⁺ and Ca⁺⁺) with 0.1 mg/mL BSA. KD values were calculated by fitting the equation y=(max/(1+K/protein))+yint using KaleidaGraph (KaleidaGraph v. 3.51, Synergy Software). Sequences of the ARC979 derivatives synthesized, purified and assayed for binding to IL-23 as well as the results of the protein binding characterization are tabulated below in Tables 29 and 30.

[9] = target: T1, IL-23 (human, p19/p40 heterodimer); assay: filter; non functional, lacks G doubles; details: tags: R&D Systems, carrier free
[10] = target: T1, IL-23 (human, p19/p40 heterodimer); assay: competition; direct +tRNA 117 nM; details: tags: R&D Systems, carrier free
Experimental: as §1
Table 25 below summarizes the minimized sequences and the parent clone from which they were derived, and Table 26 summarizes the binding characterization from direct binding assays (+/−tRNA) and competition binding assays for the minimized constructs tested.

[11] = target: T2, IL-23 (mouse, p19/p40 heterodimer) (Mus musculus, UniProt Q9EQ14;P43432 SEQ:22-196,SEQ:23-335); assay: filter; 1X PBS, 0.1 mg/mL BSA, 30 min RT; details: tags: isolated in-house; label: 32P
T2 sequence 1: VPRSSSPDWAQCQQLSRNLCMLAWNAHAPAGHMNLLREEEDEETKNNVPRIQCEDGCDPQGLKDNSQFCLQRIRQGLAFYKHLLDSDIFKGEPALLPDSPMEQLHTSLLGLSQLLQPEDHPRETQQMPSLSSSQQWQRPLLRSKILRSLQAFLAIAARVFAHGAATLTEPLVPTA
T2 sequence 2: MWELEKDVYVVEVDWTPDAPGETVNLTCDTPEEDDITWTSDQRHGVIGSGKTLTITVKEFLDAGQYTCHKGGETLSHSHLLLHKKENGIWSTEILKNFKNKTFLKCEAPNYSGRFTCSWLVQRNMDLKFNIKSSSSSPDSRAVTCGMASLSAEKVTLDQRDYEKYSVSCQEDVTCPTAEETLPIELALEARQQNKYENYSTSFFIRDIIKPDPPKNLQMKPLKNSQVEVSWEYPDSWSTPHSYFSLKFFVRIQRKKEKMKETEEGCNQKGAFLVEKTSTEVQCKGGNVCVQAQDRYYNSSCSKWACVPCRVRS
Experimental: (§5) rRfY-mIL-23S/mIL-12 neg Protein Binding Analysis. The dot blot binding assays previously described were performed throughout the selection to monitor the protein binding affinity of the pool. Trace ³²P-labeled RNA was combined with mIL-23 or mIL-12 and incubated at room temperature for 30 min in 1×PBS plus 0.1 mg/mL BSA for a final volume of 30 μL. The reaction was added to a dot blot apparatus (Schleicher and Schuell Minifold-1 Dot Blot, Acrylic). Binding curves were generated as described in previous sections. When a significant level of binding of RNA in the presence of mIL-23 was observed, the pool was cloned using the TOPO TA cloning kit (Invitrogen, Carlsbad, Calif.) according to the manufacturer's instructions. The Round 9 pool template was cloned, and 10 individual clones from the selection were assayed in an 8-point dot blot titration against mIL-23. […] Four of the 10 total clones screened bound especially to mIL-23 and mIL-12 at varying affinities.

[12] = target: T3, IL-12 (mouse, p35/p40 heterodimer) (Mus musculus, UniProt P43431;P43432 SEQ:23-215,SEQ:23-335); assay: filter; 1X PBS, 0.1 mg/mL BSA, 30 min RT; details: label: 32P
T3 sequence 1: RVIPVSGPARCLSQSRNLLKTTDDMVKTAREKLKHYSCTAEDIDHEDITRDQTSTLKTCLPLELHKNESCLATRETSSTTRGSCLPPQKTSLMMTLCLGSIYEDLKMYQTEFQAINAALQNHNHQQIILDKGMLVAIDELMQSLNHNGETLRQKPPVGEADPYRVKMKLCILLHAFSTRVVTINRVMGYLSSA
T3 sequence 2: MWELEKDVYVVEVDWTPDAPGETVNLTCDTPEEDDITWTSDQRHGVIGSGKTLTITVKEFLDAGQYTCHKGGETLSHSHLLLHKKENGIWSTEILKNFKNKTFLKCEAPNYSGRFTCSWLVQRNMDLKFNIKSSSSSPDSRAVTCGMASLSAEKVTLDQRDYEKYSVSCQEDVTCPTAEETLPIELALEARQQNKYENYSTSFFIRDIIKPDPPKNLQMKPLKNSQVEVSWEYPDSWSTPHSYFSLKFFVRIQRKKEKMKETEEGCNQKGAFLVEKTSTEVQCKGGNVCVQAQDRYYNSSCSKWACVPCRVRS
Experimental: as §5

T1 sequence (Q9NPF7 20-189, chain 1 of 2): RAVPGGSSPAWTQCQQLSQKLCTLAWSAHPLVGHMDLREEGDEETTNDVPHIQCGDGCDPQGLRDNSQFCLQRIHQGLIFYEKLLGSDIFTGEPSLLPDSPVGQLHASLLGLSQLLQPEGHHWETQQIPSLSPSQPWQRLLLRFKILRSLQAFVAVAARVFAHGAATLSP
T1 sequence (P29460 23-328, chain 2 of 2): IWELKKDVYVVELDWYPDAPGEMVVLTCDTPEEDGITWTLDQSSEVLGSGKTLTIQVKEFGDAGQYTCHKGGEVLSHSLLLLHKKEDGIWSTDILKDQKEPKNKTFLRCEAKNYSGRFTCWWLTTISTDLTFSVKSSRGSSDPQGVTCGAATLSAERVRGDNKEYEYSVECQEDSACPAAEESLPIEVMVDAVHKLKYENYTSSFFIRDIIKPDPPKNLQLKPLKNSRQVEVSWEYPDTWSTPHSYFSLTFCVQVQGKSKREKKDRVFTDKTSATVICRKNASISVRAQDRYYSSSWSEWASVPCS
IL-12 (human, p35/p40 heterodimer), sequence (P29459 23-219, chain 1 of 2): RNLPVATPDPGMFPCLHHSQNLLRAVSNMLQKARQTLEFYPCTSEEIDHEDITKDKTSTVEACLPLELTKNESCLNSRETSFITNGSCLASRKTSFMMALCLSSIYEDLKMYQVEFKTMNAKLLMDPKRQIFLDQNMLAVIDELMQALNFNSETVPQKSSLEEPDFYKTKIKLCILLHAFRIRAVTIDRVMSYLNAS
IL-12 (human, p35/p40 heterodimer), sequence (P29460 23-328, chain 2 of 2): as the sequence (P29460 23-328, chain 2 of 2) above

GGCGGUACGGGGAGUGUGGGUUGGGGCCGG (mixed, deoxy A,G; 2'-OMe C,U) [ARC794]
Kd [1]: 14 nM

ACAGGCAAGUAAUUGGGGAGUGCGGGCGGGGUGU (mixed, ARC1623 with 5'-amine-linked 40 kDa PEG; 2'-deoxy, 2'-OMe, PS, 3'-idT)
Kd [2]: ~2 nM

B1: ARC1624 (mixed)
RNA: ACAGGCAAGUAAUUGGGGAGUGCGGGCGGGGUGU
modifications: 2'-OMe C,U and G16,G17,G24,G25,G30,G31; other A,G deoxy; PS 25-26,27-28,28-29; 3'-idT [2'-OMe C2,C6,U10,U13,U14,G16,G17,U21,C23,G24,G25,C27,G30,G31,U32,U34; other A,G deoxy; PS 25-26,27-28,28-29 (N = PS linkage, left out); 3'-inverted dT 35]
IC50 [3]: 2 nM

ACAGGCAAGUAAUUGGGGAGUGCGGGCGGGGUGU (mixed, deoxy A,G; 2'-OMe C,U) [ARC979]
IC50 [4]: 6 nM

ACAGGCAAGUAAUUGGGGAGUGCGGGCGGGGUGU (mixed, ARC1623 with 5' 40 kDa PEG; 3'-idT)
IC50 [5]: ~4 nM
IC50 [6]: ~122 nM

B2: ARC1163 (mixed)
RNA: ACAGGCAAGUAAUUGGGGAGUGCGGGCGGGGUGU
modifications: deoxy A,G; 2'-OMe C,U; PS 21-22 [PS between 21-22; 2'-OMe C,U at 2,6,10,13,14,21,23,27,32,34; deoxy A,G at all other positions]
Kd [7]: 49 nM

B3: ARC1620 (mixed)
RNA: ACAGGCAAGUAAUUGGGGAGUGCGGGCGGGGUGU
modifications: 2'-OMe C,U and G16,G17,G24,G25,G30,G31; other A,G deoxy; PS 2-3; 3'-idT [PS 2-3; 2'-OMe at 2,6,10,13,14,16,17,21,23,24,25,27,30,31,32,34; other A,G deoxy; 3'-inverted dT at 35]
Kd [8]: 0.4 nM

CUACAAGGCGGUACGGGGAGUGUGG (mixed, deoxy A,G; 2'-OMe C,U) [ARC793]
binding result [9]: no binding

GGCAAGUAAUUGGGGAGUGCGGGCGGGG (mixed, deoxy A,G; 2'-OMe C,U) [ARC792]
Kd [10]: 11 nM

B4: AMX369.H1 (ARC1914) (ssRNA)
RNA: GGAGCGCACUCAGCCACCUGGGAAAAUCUGGGUCCCUGAGUUCUAACAGCAGAGAUUUUUCGACCUCUCUGCUAGC
modifications: 2'-F all C and U (rRfY)
Kd [11]: 23 nM
Kd [12]: 194 nM
